From article doi:10.1101/2020.12.02.407882

Key:
[1] = biological target: 1G4 TCR, wild type (TCRαβ with HA-tagged β); assay: co-IP
[2] = biological target: 1G4 TCR carrying βA291 (TCRαβ with HA-tagged β Y291A); assay: co-IP
[3] = biological target: QM-α TCR (1G4 variant with mutations in αCDR2, βCDR2 and βCDR3; TCRαβ with HA-tagged β); assay: pull-down

CD3ζ carrying ζA38 (I38A), expressed in J76-1G4WT-ζKO (from UniProt P20963-1 22-164) (natural protein)
ζ/β2 ratio against ζWT (ratio, ζWT = 1) [1]: 0.05

CD3ε, endogenous in J76 Jurkat cells (from UniProt P07766 23-207) (natural protein)
ε/βT ratio against 1G4-WT (ratio, 1G4-WT = 1) [2]: 0.5

CD3γ, endogenous in J76 Jurkat cells (from UniProt P09693 23-182) (natural protein)
reduction of recovery (γ/βT) against 1G4-WT [2]: 40%

CD3δ, endogenous in J76 Jurkat cells (from UniProt P04234 22-171) (natural protein)
reduction of recovery (δ/βT) against 1G4-WT [2]: 10%

CD3ζ (ζζ dimer), endogenous in J76 Jurkat cells (from UniProt P20963-1 22-164) (natural protein)
ζ/β2 ratio against 1G4-WT (ratio, 1G4-WT = 1) [2]: 0.2 | reduction of ζ/β2 ratio, (9V-A2)4-His-bound against unliganded QM-α [3]: 40%

CD3ζ carrying ζA41 (I41A), expressed in J76-1G4WT-ζKO (from UniProt P20963-1 22-164) (natural protein)
ζ/β2 ratio against ζWT (ratio, ζWT = 1) [1]: 0.25
